How the values were obtained:
[1] = target: T1, recombinant human TfR (r human TfR: Sino Biological Inc.), hTfR extracellular region with a histidine tag at … (human, UniProt P02786 89-760); experiment: BLI (Octet RED96), His-tagged TfR ECD on Ni-NTA sensor
T1 construct: Bought from Sino Biological; also called r human TfR-ECD (Histag); recombinant hTfR; not shown: histidine tag at the N-terminus

[2] = target: T2, recombinant monkey TfR (r monkey TfR: Sino Biological Inc.), crab-eating monkey TfR extracellular region with … (crab-eating monkey (Macaca fascicularis)); experiment: as above
T2 construct: Bought from Sino Biological; also called r monkey TfR-ECD (Histag); not shown: histidine tag at the N-terminus
T2 chain: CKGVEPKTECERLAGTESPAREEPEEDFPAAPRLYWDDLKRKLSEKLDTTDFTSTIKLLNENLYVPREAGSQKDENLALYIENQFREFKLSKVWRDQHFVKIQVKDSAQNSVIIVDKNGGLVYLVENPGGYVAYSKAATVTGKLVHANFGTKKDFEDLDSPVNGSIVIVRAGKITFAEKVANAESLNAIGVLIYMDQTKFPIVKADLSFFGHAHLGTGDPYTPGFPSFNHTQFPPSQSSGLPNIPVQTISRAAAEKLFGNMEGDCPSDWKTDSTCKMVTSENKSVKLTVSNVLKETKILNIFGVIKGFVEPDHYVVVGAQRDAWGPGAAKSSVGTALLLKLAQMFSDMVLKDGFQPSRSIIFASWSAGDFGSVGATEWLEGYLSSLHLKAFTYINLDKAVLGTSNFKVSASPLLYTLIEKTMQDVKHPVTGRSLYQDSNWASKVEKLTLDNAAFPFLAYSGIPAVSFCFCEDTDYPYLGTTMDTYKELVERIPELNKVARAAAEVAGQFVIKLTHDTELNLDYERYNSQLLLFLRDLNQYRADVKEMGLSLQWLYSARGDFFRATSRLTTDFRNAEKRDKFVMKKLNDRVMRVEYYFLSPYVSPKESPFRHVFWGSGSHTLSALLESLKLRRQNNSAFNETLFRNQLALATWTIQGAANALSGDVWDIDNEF

B1: Fab GS3-IDUA (other)
light: DIVMTQTPLSLSVTPGQPASISCRSSQSLVHSNGNTYLHWYLQKPGQSPQLLIYKVSNRFSGVPDRFSGSGSGTDFTLKISRVEAEDVGVYYCSQSTHVPWTFGQGTKVEIKRTVAAPSVFIFPPSDEQLKSGTASVVCLLNNFYPREAKVQWKVDNALQSGNSQESVTEQDSKDSTYSLSSTLTLSKADYEKHKVYACEVTHQGLSSPVTKSFNRGEC
heavy: EVQLVQSGAEVKKPGESLKISCKGSGYSFMNYWLGWVRQMPGKGLEWMGDIYPGGDYPTYSEKFKVQVTISADKSISTAYLQLSSLKASDTAMYYCARSGNYDEVAYWGQGTLVTVSSASTKGPSVFPLAPSSKSTSGGTAALGCLVKDYFPEPVTVSWNSGALTSGVHTFPAVLQSSGLYSLSSVVTVPSSSLGTQTYICNVNHKPSNTKVDKKVEPKSCDKTHTGGGGSGGGGSGGGGSAEAPHLVHVDAARALWPLRRFWRSTGFCPPLPHSQADQYVLSWDQQLNLAYVGAVPHRGIKQVRTHWLLELVTTRGSTGRGLSYNFTHLDGYLDLLRENQLLPGFELMGSASGHFTDFEDKQQVFEWKDLVSSLARRYIGRYGLAHVSKWNFETWNEPDHHDFDNVSMTMQGFLNYYDACSEGLRAASPALRLGGPGDSFHTPPRSPLSWGLLRHCHDGTNFFTGEAGVRLDYISLHRKGARSSISILEQEKVVAQQIRQLFPKFADTPIYNDEADPLVGWSLPQPWRADVTYAAMVVKVIAQHQNLLLANTTSAFPYALLSNDNAFLSYHPHPFAQRTLTARFQVNNTRPPHVQLLRKPVLTAMGLLALLDEEQLWAEVSQAGTVLDSNHTVGVLASAHRPQGPADAWRAAVLIYASDDTRAHPNRSVAVTLRLRGVPPGPGLVYVTRYLDNGLCSPDGEWRRLGRPVFPTAEQFRRMRAAEDPVAAAPRPLPAGGRLTLRPALRLPSLLLVHVCARPEKPPGQVTRLRALPLTQGQLVLVWSDEHVGSKCLWTYEIQFSQDGKAYTPVSRKPSTFNLFVFSPDTGAVSGSYRVRALDYWARPGPFSDPVPYLEVPVPRGPPSPGNP
notes: also called Fab HC-GS3-IDUA
kon [1]: 293000 M⁻¹ s⁻¹
Kd [2]: 1.32 nM
koff [2]: 0.000292 s⁻¹
kon [2]: 221000 M⁻¹ s⁻¹

B2: Fab GS3-PPT1 (other)
light: B1 light
heavy: EVQLVQSGAEVKKPGESLKISCKGSGYSFMNYWLGWVRQMPGKGLEWMGDIYPGGDYPTYSEKFKVQVTISADKSISTAYLQLSSLKASDTAMYYCARSGNYDEVAYWGQGTLVTVSSASTKGPSVFPLAPSSKSTSGGTAALGCLVKDYFPEPVTVSWNSGALTSGVHTFPAVLQSSGLYSLSSVVTVPSSSLGTQTYICNVNHKPSNTKVDKKVEPKSCDKTHTGGGGSGGGGSGGGGSDPPAPLPLVIWHGMGDSCCNPLSMGAIKKMVEKKIPGIYVLSLEIGKTLMEDVENSFFLNVNSQVTTVCQALAKDPKLQQGYNAMGFSQGGQFLRAVAQRCPSPPMINLISVGGQHQGVFGLPRCPGESSHICDFIRKTLNAGAYSKVVQERLVQAEYWHDPIKEDVYRNHSIFLADINQERGINESYKKNLMALKKFVMVKFLNDSIVDPVDSEWFGFYRSGQAKETIPLQETSLYTQDRLGLKEMDNAGQLVFLATEGDHLQLSEEWFYAHIIPFLG
notes: also called Fab HC-GS3-PPT1
Kd [1]: < 1 pM
koff [1]: < 1e-07 s⁻¹
kon [1]: 417000 M⁻¹ s⁻¹

Reference: patent US20250026846A1 (JCR PHARMACEUTICALS, published 2025)
